Results reported in the nanobody polyreactivity screen of Harvey et al. (2022).

Experiment: yeast display, Sf9 membrane polyspecificity reagent, FACS + sequencing; frameworks hold sequencing errors
Outline: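 Galactose induction of a Saccharomyces cerevisiae BJ5465 synthetic nanobody display library ran 36–48 hours. The cells were then stained for 1 hour at 4 °C with 10% biotinylated, detergent-solubilized Sf9 membrane reagent, pulled down on streptavidin microbeads and FACS-sorted into low and high (top ~1%) gates on expression and reagent-binding fluorescence. Labels for polyreactivity follow the gate of origin.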

Sequence | polyreactivity (PSR sort gate)
QVQLVESGGGLVQAGGSLRLSCAASGSIFQGYAMGWYRQAPGKERELVAAITASGGSTYYADSVKRRFTISRDNAKNTVYLQMNSLKPEDTAVYYCATDSYWRQDLYRYEYWGQGTQVTVSS | high polyreactivity
QVQLVESGGGLVQAGGSLRLSCAASGSTFKSNAMGWYRQAPGKERELVAAINRSGAGTYYADSVKGRFTISRDNAKHTVYLQLNSLKPEDTAVYYCAAQSYSRRYDYWGQGTQVTVSS | high polyreactivity
QVQLVDSGGGLVQAGGSLRLSCAASGSTFRYNVMGWYRQAPGKEREMVATISYSGGSTNYADSVKGRFTISRDNAKNTVYLPMNSLKPEDTAVYYCAARYLYPFYRYWWYDYWGQGTQVTVSS | high polyreactivity
QVQLVESGGGLVQAGGSLRLSCAASGRIFGHYVMGWYRQAPRKERELDAAITRGDSTYYADSVKGRFTISRDNAKNTVYLEMNSLKPEDTAVYYCAARVWRVDARDRYYWGQGTQVTVSS | high polyreactivity
QVQLQESGGGLVQAGGSLRLSCAASGSNSILQSMGWYRQAPRKERELVAGINWGATTYYADSVKGRLTTSRDYAINTVYLQMNSLKPEATAVYYCAVPTYYTYPLLYWGQGTQVTVSS | low polyreactivity
QVQLVESGGGLVQAGGSLRLSCAASGFILGYNAMGLYRQAPGKERELVAAINGGSGSTYYADSVKGRFTISRDNAKNTVYLQMNSLKPEDTAVYYCAAEVTWAFFYERDYWGQGTQVTVSS | high polyreactivity
QVQLVESGGGLVQAGGSLRLSCAASGFIFPFYAMGWYRQAPGKERELVAVIRTSSDRTYYADSVKGRFTISRDNAKNTVYLQMNSLKPEDTAVYYCAAETYRLFDYWGQGTQVTVSS | low polyreactivity
QVQLVESGGGLVQAGGSLRLSCAASGSTFRAYAMGWYRQAPGKEREFVADISWSGGSTYYADSVKGRFTISRDNAKNTVYLQMNSLKPEDTAVYYCAAEAAPLIIVTYDYWGQGTQVTVSS | low polyreactivity
QVQLVESGGGLVQAGGSLSLSCAASGYIFVPYAMGWYRQAPGKERELVAAISWSTGTTYYADSVKGRFTISRDNAKNTVYLQMNSLKPEDTAVYYCAAEGYDWIYLYYGLGYWGQGTQVTVSS | low polyreactivity
QVQLVESGGGLVQAGGSLRLSCAASGRTFYYYAMGWYRQAPGKEREFVAAISWSGVRTSYADSVKGRFTISRDNAKNTVNLQMNSLKPEDTAVYYCATKPNPQSRPRYDHWGQGTQVTVSS | high polyreactivity
QVKLVESGGGLVQSGGSLRLSCAASGSILDVNAMGWYRQAPGKERELVAAISDSGGSTYYADSVKGRFTISRDNAKNTVYLQMNSLKPEDTAVYYCATAYYYHGGYYYPYDDYWGQGTQVTVSS | low polyreactivity
QVQLVESGGGLVQAGGSHRLSCAASGSIFNLYTMGWYIQAPGKERELVAAIRWSGGRTYYADSVKGRFTISRDNAKNTVYLQMNSLKAEDTAVYYCAVRRVVARYDHWGQGTQVTVSS | low polyreactivity
QVQLVESGGGLVQAGGSLRLSCAASGIIFAYYALGWYRQAPGKERELVAGITQSGGDTYYADSVKGRFTISRDNAKNTVYLQLNSLKPEDTAVYYCAAGWWGYDYWGQGTQVTVSS | high polyreactivity
QVQLVESGGGLVQAGGSLRLSCAASGNTFNKYAMGWYRQAPGKERELVAAISYSGGSTYYADSVKGRFTISRDNAKNTVYLQMNSLKPEDTAVYYCNAVYYVYPRRYDYWGQGTQVSVSS | high polyreactivity
QVQLVESGGGLFQAGGSLRLSCAASGSIFLYYAMGWYRQAPGKERELDATIRRRDGSTYYADSVKGRFTISRDNAKNTVYLQMNSLIPEDTAVYYCNTAGYYWLHYTMDYWGQVTQVTVSS | high polyreactivity
QVQLVESGGGLVQAGGSLRLSCAASGFTFHNYAMGWYRQAPGKERELVAAISASGSSTYYADSVKGRFTISRDNAKNTVYLQMNSLKPEDTAVYYCAAVGRYSPYGYWGQGTQVTVSS | high polyreactivity
QVQLVESGGGLVQAGGSLRLSCAASGRTFIVYAMGWYRQAPGKERELVAAITTSLGRTYYADSVKGRFTISRDNAKNTVYLQMNSLKPEDTAVYYCAADRLDGYSEYYYWGQGTQVTVSS | low polyreactivity
